Test results taken from patent US20180258175A1 (ABLEXIS, published 2018).

B1: CCL-223A (antibody, V domains shown)
VH: QVQLQESGPGLVKPSETLSLTCTVSGGSISSYYWSWIRQPAGKGLEWIGRIYTSGSTNYNPSLKSRVSMSVDTSKNQFSLKLSSVTAADTAVYYCARERIIWFDPWGQGTLVTVSS
VL: not shown
notes: AlivaMab chimeric IgG, human lambda LC
B2: CCL-207A (antibody, V domains shown)
VH: QVQLQESGPGLVKPSETLSLTCTVSGGSISSYYWSWIRQPAGKGLEWIGRIYTSGTTNYNPSLKSRVTMSVDTSKNQFSLKLNSVTAADTAVYYCARERVIWFDPWGQGTLVTVSS
VL: not shown
notes: as for B1
B3: CCK-408A (antibody, V domains shown)
VH: QVQLQESGPGLVKPSETLSLTCTVSGGSISSYYWSWIRQPAGKGLEWIGRIYTSGSTNYHPSFKSRVTMSVDTSKTQFSLKLSSLTAADTAVYYCARGGITWFDPWGQGTLVTVSS
VL: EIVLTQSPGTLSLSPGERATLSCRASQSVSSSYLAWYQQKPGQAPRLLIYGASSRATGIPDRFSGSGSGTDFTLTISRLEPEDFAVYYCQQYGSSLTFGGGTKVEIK
notes: AlivaMab chimeric IgG, human kappa LC
B4: CCL-220A (antibody, V domains shown)
VH: QVQLQESGPGLVKPSETLSLTCTVSGGSISSYYWSWIRQPAGKGLEGIGRIYTSGSTNYNPSLKSRVTMSVDTSKNQFSLKLSSVTAADTAVYYCARERLYGMDVWGQGTTVTVSS
VL: not shown
notes: as for B1
B5: CCL-226A (antibody, V domains shown)
VH: QVQLQESGPGLVKPSETLSLTCTVSGASISSYYWSWIRQPPGKGLEWIGYFYYSGSTNYSPSLKSRVTFSVDTSKNQFSLKLSSVTAADTAVYFCARGKVGVPFDYWGQGTLVTVSS
VL: not shown
notes: as for B1
B6: CCL-314A (antibody, V domains shown)
VH: QVQLQESGPGLVKPSETLSLTCTVSGGSISSYYWSWIRQPAGKGLEWIGRIYASGGTNYNPSLKSRVTMSVDTSKNQFSLKVSSVIAADTAIYYCARNRLGIYDYWGQGSLVTVSS
VL: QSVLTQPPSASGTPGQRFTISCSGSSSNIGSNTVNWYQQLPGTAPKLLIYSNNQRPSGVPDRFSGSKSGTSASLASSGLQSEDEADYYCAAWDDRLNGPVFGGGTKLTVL
notes: as for B1
B7: CCK-501A (antibody, V domains shown)
VH: EVQLVESGGGLVKPGGSLRLSCAASGFTFSNAWMNWVRQAPGKGLEWVGRINSKTDGGTTDYAAPVKGRFTISRDDSKTTLYLQMNSLKTEDTAVYYCTTDGVYPDVFDIWGQGTMVTVSS
VL: not shown
notes: as for B3
B8: CCL-209A (antibody, V domains shown)
VH: QVQLQESGPGLVKPSETLSLTCTVSGGSISSFYWSWIRQSPGRGLEWIGYIFYSGSTKYNPSLMSRVTISADTSKNQFSLKLSSVTAADTAVYYCARGRLGNYFDYWGQGTLVTVSS
VL: not shown
notes: as for B1
B9: CCL-311A (antibody, V domains shown)
VH: EVQLVQSGAEVKKPGESLKISCKGSGYSFTNYWIGWVRQMPGKGLEWMGIIYPGDSDTRYSPSFQGQVTISADISITTAYLQWSSLKASDTAMYYCARHRLGFFDYWGQGTLVTVSS
VL: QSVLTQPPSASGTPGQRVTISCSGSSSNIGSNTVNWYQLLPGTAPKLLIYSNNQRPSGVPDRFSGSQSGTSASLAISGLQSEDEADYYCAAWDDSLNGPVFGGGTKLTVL
notes: as for B1
B10: CCL-349A (antibody, V domains shown)
VH: QVQLQESGPGLVKPSETLSLTCTVSGGSISIYYWNWIRQPPGKGLEWIGYIYYIGSTNYNPSLKSRVTISVDTSKNQFSLKLSSVTAADTAVYYCARGRLTYAFDIWGQGTMVTVSS
VL: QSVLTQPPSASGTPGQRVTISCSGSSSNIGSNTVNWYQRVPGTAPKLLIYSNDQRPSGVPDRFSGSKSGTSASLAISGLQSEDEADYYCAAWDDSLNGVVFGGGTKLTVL
notes: as for B1
B11: CCL-203A (antibody, V domains shown)
VH: QVQLQESGPGLVKPSETLSLTCTVSGGSISSYYWNWIRQPPGKGLEWIGYIYYSGSTNYNPSLKSRVTISLDTSKNQFSLKLSSVTAADTAVYHCARGRLNGAFDYWGQGTLVTVSS
VL: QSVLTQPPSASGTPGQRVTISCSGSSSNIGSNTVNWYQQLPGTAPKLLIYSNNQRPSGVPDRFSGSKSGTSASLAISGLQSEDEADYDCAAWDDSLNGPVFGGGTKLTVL
notes: as for B1
B12: CCL-341A (antibody, V domains shown)
VH: QVQLQESGPGLVKPSETLSLTCTVSGGSISSYYWSWIRQPAGKGLEWIGRIYTSGSTNYNPSLKSRVTMSVDTSKNQFSLKLSSVTAADTAVYYCARERLGMFFDYWGQGTLVTVSS
VL: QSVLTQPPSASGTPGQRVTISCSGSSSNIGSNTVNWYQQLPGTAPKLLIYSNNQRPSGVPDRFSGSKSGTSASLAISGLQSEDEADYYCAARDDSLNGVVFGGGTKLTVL
notes: as for B1
B13: CCL-322A (antibody, V domains shown)
VH: QVQLQESGPGLVKPSETLSLTCTVSGGSISSYYWSWIRQPAGKGLEWIGRIYTSGSIKYNPSLKSRVAMSVDTSKNQFSLKLSSVTAADTAVYYCAREGILGYFDYWGQGTLVTVSS
VL: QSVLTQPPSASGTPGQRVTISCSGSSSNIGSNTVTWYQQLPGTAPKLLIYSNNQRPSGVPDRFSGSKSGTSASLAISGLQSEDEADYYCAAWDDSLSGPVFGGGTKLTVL
notes: as for B1
B14: CCL-303A (antibody, V domains shown)
VH: QVQLQESGPGLVKPSETLSLTCTVSGGSISSYYWSWIRQPPGKGLEWIGYIYYSGSTNYNPSLKSRVTISVDTSKNQFSLKLSSVTAADTAVFYCARITVTSAFDIWGQGTMVTVSS
VL: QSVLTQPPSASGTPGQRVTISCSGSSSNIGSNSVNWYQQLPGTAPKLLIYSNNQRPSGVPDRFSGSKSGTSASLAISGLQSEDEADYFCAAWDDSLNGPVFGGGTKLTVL
notes: as for B1
B15: CCL-339A (antibody, V domains shown)
VH: QVQLQESGPGLVKPSETLSLTCTVSGGSISSNYWSWIRQPAGKGLEWIGRIYTSGSTKYNPSLKSRVTMSVDTSKNQFSLKLSSVTAADTAVYYCAREGIVGAFHYWGQGALVTVSS
VL: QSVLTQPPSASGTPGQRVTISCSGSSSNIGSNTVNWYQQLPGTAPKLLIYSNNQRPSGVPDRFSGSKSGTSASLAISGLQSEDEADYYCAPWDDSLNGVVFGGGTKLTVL
notes: as for B1
B16: CCL-235A (antibody, V domains shown)
VH: QVQLQESGPGLVKPSETLSLTCTVSGGSISSYYWSWIWQPAGKGLEWIGRIYTSGSTNYNPSLKSRVTMSVDTPKNQFSLKLSSVTAADTAVYYCARERLTGAFDIWGQGTMVTVSS
VL: not shown
notes: as for B1
B17: CCL-253A (antibody, V domains shown)
VH: QVQLQESGPGLVKPSETLSLTCTVSGGSISSYYWSWIRQPAGKGLEWIGRIYTSGSTNYNPSLKSRVTMSVDTSKNQFSLKLSSMTAADTAVYYCARDRLGRAFDIWGQGTMVTVSS
VL: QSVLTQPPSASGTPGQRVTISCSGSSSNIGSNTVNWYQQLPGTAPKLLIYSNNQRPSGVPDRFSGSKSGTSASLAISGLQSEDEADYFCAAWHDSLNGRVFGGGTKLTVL
notes: as for B1
B18: CCL-320A (antibody, V domains shown)
VH: QVQLQESGPGLVKPSETLSLTCTVSVGSISSYYWSWIRQPAGKGLEWIGRIYASGSTNYNPSLKSRVTMSVDTSKNQFSLKLTSVTAADTAVYYCARERVGIYFDYWGQGTLVTVSS
VL: not shown
notes: as for B1
B19: CCL-344A (antibody, V domains shown)
VH: QVQLQESGPGLVKPSETLSLTCTVSGGSISSYYWSWIRQPAGKGLEWIGRIYTSGSTNYNPSLKSRVTMSVDTSKNQFSLKLSSVTAADTAVYYCARERLGMFFDYWGQGTLVTVSS
VL: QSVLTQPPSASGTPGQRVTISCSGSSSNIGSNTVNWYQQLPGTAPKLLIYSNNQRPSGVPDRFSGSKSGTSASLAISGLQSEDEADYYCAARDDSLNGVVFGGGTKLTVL
notes: as for B1
B20: CCL-301A (antibody, V domains shown)
VH: QVQLQESGPGLVKPSETLSLTCTVSGGSISSYYWSWIRQPAGKGLEWIGRIYTSGYTNYNPSLKSRVSMSVDTSKNQFSLKLSSVTAADTAVYYCARERLGAFFDYWGQGTLVTVSS
VL: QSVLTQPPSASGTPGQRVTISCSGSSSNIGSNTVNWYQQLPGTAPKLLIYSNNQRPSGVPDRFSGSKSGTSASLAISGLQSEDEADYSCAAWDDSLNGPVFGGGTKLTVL
notes: as for B1
B21: CCK-410A (antibody, V domains shown)
VH: EVQLVESGGGLVQPGRSLRLSCTASGFTFGDYAMSWFRQAPGKGLEWVGFIRSKAYGGTTEYAASVKGRFTISRDDTKSIAYLQMNSLKIEDTAVHYCTREGSFGALDIWGQGIMVTVSS
VL: not shown
notes: as for B3
B22: CCL-208A (antibody, V domains shown)
VH: QVQLVQSGAEVKKPGASVKVSCKASGYTFTDYYMHWVRQAPGQGLEWMGWINPNSGGANYAQKFQGRVTMTRDTSISIAYMELSRLRSDDTAIYYCARGRLTFFDYWGQGTLVTVSS
VL: not shown
notes: as for B1
B23: CCL-315A (antibody, V domains shown)
VH: QVQLQESGPGLVKPSETLSLTCTVSGGSISSYYWSWIRQSPGKGLEWIGYIYYSGSTNYNPSLKSRVTISVDTSKNQFSLKLSSVTAADTAVYFCARALLTGGFAYWGQGTLVTVSS
VL: not shown
notes: as for B1
B24: CCL-338A (antibody, V domains shown)
VH: QVQLQESGPGLVKPSETLSLTCTVSGGSISSYYWSWIRQPPGKGLEWIGYIYYSGTTNYNPSLKSRVTISVDTSKNQFSLKLSSVTAADTAVYYCARALIVGAFAYWGQGTLVTVSS
VL: SYELTQPHSVSVATAQMARITCGGNNIGSKAVHWYQQKPGQDPVLVIYSDSNRPSGIPERFSGSNPGNTATLTISRIEAGDEADYYCQVWDSSSDHRVFGGGTKLTVL
notes: as for B1
B25: CCL-324A (antibody, V domains shown)
VH: QVQLQESGPGLVKPSETLSLTCTVSGGSISSYYWSWIRQPPGKGLEWIGYVYYSGSTNYNPSLKSRVTTSVDTSKNQFSLKLRSVTAADTAVYYCARDRLGIAFDIWGQGTMVTVSS
VL: SSELTQDPAVSVALGQTVRITCQGDSLRSYYASWYQQKPGQAPILVIYGKNNRPSGIPDRFSGSSSGNTASLTITGAQAEDEADYYCNSQDNSGNHLVVFGRGTKLTVL
notes: as for B1
B26: CCL-201A (antibody, V domains shown)
VH: QVQLQESGPGLVKPSETLSLTCTVSGGSISSYYWIWIRQPPGKGLEWIGYFYYSGSTNYNPSLKSRVTISVGTSKNQFSLKLSSVTAADTAVYYCARSRLGSIFDYWGQGTLVTVSS
VL: not shown
notes: as for B1
B27: CCK-434A (antibody, V domains shown)
VH: EVQLVESGGGLVQPGGSLRLSCAASGFTFSSYDMHWVRQATGKGLEWVSAIGTAGDTYYPGSVKGRFTISRENAKNSLYLQMNSLRAGDTAVYYCARGHIVVVTAMDYWGQGTLVTVSS
VL: not shown
notes: as for B3
B28: CCL-333A (antibody, V domains shown)
VH: EVQLVESGGGLVKPGGSLRLSCAASGFTFSYYSMNWVRQAPGKGLEWVSSISDSSDYIYYADSVKGRFTISRDNAKNSLYLQMNSLRAEDTAVYYCARGGLRFDYWGQGTLVTVSS
VL: not shown
notes: as for B1
B29: CCL-331A (antibody, V domains shown)
VH: QVQLQESGPGLVKPSETLSLTCTVSGGSISSYYWSWIRQPAGKGLEWIGRIYTSGSTNYNPSLKSRVTMSVDTSKNQFSLKLSSVTAADTAVYYCAREGLRGFDPWGQGTLVTVSS
VL: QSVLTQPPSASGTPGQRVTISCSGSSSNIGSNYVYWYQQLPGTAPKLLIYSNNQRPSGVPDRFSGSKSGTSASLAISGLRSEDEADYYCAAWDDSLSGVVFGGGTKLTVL
notes: as for B1
B30: CCL-206A (antibody, V domains shown)
VH: QVQLQESGPGLVKPSETLSLTCTVSGGSISSYYWTWIRQPPGKGLEWIGYIYYSGITNYNPSLKSRVTMSMDTSKNQFSLRLSSVTAADTAVYYCARGRIIGAFDIWGQGTMVTVSS
VL: not shown
notes: as for B1
B31: CCL-249A (antibody, V domains shown)
VH: QVQLQESGPGLVKPSETLSLTCTVSGGSISSYYWSWIRQPAGKGLEWVGRLFTSGSTNYNPSLKSRVTMSVDTSKNQFSLKLSSVIAADTAVYYCARERLTGYFDYWGQGTLVTVSS
VL: not shown
notes: as for B1

Biological target: T1, human CD115 extracellular domain (Sino Biological 10161-H08H) (human, UniProt P07333 20-517)
T1 construct: extracellular domain; bought recombinant protein; also called huCD115; hu-CD115
Assay: ELISA, supernatant on huCD115

Binder | binding result
B1 | binds
B2 | binds
B3 | binds
B4 | binds
B5 | binds
B6 | binds
B7 | binds
B8 | binds
B9 | binds
B10 | binds
B11 | binds
B12 | binds
B13 | binds
B14 | binds
B15 | binds
B16 | binds
B17 | binds
B18 | binds
B19 | binds
B20 | binds
B21 | binds
B22 | binds
B23 | binds
B24 | binds
B25 | binds
B26 | binds
B27 | binds
B28 | binds

Biological target: T1, human CD115 extracellular domain (Sino …)
Assay: SPR ProteOn, supernatant mAb captured on anti-mouse IgG, Hu CD115 analyte

Binder | Kd | koff | kon
B29 | 0.118 nM | 2.2e-05 s⁻¹ | 186000 M⁻¹ s⁻¹
B30 | 0.495 nM | 2.92e-05 s⁻¹ | 59000 M⁻¹ s⁻¹
B31 | 0.599 nM | 8.91e-05 s⁻¹ | 149000 M⁻¹ s⁻¹
